Experimental data as given in the supplement of paper PMC10065799, “High-throughput profiling of sequence recognition by tyrosine kinases and SH2 domains using bacterial peptide display” (eLife, 2023).

What was measured:
FGFR3 = FGFR3 (UniProt P22607); test: phosphorylation enrichment, bacterial display (enrichment ratio); higher = better substrate or ligand; peptides without Tyr show the background
EPHB2 = EPHB2 (UniProt P29323); test: as above
Hck = Hck (UniProt P08631); test: as above
EPHB1 = EPHB1 (UniProt P54762); test: as above
Fer (mouse) = test: as above
c-Abl (mouse) = test: as above
FGFR1 = FGFR1 (UniProt P11362); test: as above
AncSZ = test: as above
Fyn = Fyn (UniProt P06241); test: as above
MERTK = MERTK (UniProt Q12866); test: as above
Jak2 = Jak2 (UniProt O60674); test: as above
c-Src = test: as above
Fes = Fes (UniProt P07332); test: as above
Grb2 SH2 = Grb2 SH2 (UniProt P62993); test: SH2 binding enrichment of the phosphorylated peptide, bacterial display (enrichment ratio); higher = better substrate or ligand; peptides without Tyr show the background
SHP2-C SH2 = test: as above
c-Src SH2 = test: as above
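Throughout, for SH2 binding enrichment of the phosphorylated peptide, bacterial display: peptide library displayed on the E. coli surface as eCPX fusions, selected cells deep-sequenced, score is each peptide's frequency after selection divided by its frequency in the input.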
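Throughout, for phosphorylation enrichment, bacterial display: 11-residue human phosphosite peptides and single-mutation variants displayed on the E. coli surface, counted by deep sequencing, each peptide's frequency after selection divided by its frequency in the unselected input library; frequency after pTyr selection over input frequency; kinase dosed for 20-30% of maximal phosphorylation in three min.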

EPHB2, sequence (P29323 whole entry, looked up): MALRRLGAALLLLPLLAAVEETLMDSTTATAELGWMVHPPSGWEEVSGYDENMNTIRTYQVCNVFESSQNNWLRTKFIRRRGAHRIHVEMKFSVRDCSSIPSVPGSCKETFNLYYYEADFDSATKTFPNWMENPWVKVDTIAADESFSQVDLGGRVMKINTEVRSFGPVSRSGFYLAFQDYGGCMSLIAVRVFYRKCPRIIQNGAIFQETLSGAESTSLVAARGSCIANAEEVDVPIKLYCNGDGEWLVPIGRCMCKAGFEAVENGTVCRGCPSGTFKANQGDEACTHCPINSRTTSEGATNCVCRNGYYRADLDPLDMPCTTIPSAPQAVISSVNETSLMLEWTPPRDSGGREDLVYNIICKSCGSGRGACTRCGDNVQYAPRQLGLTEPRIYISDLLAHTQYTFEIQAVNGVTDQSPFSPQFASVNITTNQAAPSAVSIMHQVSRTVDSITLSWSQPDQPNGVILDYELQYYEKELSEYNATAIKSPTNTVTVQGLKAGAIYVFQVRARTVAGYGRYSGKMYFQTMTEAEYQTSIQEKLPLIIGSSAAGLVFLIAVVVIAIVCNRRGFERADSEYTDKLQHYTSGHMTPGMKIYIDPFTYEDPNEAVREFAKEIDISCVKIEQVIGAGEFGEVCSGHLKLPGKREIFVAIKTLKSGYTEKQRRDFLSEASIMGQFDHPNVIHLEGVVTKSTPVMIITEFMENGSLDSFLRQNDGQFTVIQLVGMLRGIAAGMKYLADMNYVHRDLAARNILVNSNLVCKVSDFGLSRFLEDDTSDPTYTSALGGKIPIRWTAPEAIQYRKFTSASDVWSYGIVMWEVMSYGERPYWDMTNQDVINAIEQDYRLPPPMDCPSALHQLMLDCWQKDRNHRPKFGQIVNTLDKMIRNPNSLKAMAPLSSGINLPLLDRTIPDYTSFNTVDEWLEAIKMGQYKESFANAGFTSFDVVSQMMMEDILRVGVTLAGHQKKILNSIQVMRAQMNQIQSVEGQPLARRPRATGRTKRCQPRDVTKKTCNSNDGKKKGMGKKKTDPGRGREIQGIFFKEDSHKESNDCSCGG
Grb2 SH2, sequence (P62993 whole entry, looked up): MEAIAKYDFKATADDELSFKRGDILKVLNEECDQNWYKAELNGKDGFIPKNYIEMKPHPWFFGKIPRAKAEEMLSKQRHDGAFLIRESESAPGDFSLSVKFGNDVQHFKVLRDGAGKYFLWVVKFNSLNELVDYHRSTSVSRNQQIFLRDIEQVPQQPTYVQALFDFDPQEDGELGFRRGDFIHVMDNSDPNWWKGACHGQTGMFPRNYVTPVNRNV
FGFR3, sequence (P22607 whole entry, looked up): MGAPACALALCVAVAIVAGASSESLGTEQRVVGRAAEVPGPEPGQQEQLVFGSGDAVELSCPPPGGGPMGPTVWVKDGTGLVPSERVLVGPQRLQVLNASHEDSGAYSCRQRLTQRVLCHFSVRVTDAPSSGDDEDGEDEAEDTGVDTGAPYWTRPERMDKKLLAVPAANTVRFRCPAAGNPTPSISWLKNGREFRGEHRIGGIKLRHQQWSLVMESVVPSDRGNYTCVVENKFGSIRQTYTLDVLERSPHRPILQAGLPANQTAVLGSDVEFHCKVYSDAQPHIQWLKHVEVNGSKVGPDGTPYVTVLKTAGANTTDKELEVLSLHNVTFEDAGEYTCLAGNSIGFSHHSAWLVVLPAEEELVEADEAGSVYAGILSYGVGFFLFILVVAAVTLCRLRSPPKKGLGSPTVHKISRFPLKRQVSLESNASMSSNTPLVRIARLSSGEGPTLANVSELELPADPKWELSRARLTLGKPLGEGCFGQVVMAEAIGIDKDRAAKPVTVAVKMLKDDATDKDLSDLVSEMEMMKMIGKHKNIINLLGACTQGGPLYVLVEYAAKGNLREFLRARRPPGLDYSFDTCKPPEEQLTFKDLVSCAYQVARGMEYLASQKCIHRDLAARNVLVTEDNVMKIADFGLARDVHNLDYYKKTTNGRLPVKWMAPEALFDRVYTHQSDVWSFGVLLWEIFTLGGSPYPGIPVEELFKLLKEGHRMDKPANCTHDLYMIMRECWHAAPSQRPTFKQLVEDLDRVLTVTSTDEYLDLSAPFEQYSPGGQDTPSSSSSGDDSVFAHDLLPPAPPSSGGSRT
MERTK, sequence (Q12866 whole entry, looked up): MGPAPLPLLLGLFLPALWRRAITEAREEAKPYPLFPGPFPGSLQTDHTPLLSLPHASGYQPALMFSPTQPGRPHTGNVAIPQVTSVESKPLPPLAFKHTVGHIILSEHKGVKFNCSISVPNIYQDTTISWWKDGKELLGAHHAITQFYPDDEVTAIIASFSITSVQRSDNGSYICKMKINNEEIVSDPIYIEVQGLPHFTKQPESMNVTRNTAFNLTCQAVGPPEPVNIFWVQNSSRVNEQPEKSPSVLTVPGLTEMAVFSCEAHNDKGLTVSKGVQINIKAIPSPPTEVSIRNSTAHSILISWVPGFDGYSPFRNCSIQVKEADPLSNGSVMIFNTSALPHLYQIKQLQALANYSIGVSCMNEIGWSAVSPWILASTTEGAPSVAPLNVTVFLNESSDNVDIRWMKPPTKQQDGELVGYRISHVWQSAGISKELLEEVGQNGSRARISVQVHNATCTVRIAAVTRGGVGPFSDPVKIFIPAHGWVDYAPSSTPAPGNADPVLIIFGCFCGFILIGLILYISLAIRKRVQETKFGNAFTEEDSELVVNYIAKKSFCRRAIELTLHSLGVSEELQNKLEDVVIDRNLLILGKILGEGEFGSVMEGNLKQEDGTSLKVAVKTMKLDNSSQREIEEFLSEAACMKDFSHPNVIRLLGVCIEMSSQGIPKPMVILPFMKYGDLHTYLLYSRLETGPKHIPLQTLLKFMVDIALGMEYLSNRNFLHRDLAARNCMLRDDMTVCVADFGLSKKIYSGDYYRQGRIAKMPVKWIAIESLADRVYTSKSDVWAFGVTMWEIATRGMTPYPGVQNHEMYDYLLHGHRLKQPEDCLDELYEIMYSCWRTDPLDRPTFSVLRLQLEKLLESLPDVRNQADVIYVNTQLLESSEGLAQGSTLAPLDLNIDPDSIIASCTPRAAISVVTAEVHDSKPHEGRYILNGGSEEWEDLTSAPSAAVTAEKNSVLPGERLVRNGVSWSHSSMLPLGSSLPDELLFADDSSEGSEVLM
Fes, sequence (P07332 whole entry, looked up): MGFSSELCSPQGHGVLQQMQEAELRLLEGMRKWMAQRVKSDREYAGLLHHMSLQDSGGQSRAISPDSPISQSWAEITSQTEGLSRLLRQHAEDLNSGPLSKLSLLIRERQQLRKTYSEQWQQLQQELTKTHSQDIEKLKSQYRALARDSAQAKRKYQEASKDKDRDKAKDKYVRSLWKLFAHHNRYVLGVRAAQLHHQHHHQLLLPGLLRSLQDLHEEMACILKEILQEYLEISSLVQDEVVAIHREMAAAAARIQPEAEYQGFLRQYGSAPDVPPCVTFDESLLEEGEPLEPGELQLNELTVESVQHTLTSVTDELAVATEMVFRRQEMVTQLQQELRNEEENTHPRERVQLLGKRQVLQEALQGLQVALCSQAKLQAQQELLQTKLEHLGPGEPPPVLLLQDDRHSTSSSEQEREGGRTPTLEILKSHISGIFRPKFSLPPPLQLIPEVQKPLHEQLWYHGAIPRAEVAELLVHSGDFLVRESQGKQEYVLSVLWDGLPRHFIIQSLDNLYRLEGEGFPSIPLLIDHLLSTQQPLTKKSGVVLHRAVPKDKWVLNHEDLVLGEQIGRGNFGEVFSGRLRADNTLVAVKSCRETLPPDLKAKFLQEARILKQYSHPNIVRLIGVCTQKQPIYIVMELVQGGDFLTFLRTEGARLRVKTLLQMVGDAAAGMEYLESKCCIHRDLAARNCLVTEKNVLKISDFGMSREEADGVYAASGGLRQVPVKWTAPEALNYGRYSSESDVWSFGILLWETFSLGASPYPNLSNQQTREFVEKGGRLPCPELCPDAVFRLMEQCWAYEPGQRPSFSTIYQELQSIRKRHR
Fyn, sequence (P06241 whole entry, looked up): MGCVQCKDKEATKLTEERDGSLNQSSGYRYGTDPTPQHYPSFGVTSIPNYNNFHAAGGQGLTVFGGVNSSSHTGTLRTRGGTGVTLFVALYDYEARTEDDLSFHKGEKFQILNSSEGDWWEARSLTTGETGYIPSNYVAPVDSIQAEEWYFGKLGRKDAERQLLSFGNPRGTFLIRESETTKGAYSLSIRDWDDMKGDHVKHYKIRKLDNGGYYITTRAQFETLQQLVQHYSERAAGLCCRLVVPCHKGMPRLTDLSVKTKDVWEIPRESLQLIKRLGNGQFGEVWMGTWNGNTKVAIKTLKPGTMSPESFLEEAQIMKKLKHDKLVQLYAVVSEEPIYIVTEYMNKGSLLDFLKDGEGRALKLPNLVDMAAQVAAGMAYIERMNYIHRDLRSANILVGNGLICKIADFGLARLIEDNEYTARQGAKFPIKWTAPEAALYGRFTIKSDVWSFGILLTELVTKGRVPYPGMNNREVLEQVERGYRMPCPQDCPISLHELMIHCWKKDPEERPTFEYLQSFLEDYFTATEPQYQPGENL
Hck, sequence (P08631 whole entry, looked up): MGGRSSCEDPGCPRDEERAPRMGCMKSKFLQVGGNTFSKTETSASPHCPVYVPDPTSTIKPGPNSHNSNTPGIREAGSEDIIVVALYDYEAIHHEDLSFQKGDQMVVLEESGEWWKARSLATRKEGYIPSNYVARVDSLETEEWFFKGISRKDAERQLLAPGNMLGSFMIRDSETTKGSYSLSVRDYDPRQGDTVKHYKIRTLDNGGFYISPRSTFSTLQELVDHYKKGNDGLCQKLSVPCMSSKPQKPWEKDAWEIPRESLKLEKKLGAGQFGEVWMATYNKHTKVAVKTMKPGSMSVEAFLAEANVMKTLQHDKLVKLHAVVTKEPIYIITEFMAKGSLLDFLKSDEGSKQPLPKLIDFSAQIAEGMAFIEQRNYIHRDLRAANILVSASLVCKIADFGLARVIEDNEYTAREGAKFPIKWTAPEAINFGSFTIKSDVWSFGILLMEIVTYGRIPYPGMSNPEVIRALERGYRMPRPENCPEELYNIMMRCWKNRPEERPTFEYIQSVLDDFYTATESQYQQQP

| Sequence | phosphorylation enrichment (FGFR3) | phosphorylation enrichment (EPHB2) | phosphorylation enrichment (Hck) | phosphorylation enrichment (EPHB1) | phosphorylation enrichment (Fer (mouse)) | phosphorylation enrichment (c-Abl (mouse)) | phosphorylation enrichment (FGFR1) | phosphorylation enrichment (AncSZ) | phosphorylation enrichment (Fyn) | phosphorylation enrichment (MERTK) | phosphorylation enrichment (Jak2) | phosphorylation enrichment (c-Src) | phosphorylation enrichment (Fes) | SH2 binding enrichment (Grb2 SH2) | SH2 binding enrichment (SHP2-C SH2) | SH2 binding enrichment (c-Src SH2) |
| --- | --- | --- | --- | --- | --- | --- | --- | --- | --- | --- | --- | --- | --- | --- | --- | --- |
| HNLDFYKMTTN [FGFR3_Y648_K650M_YF] | 1.88 | 1.1 | 1.67 | 0.954 | 0.728 | 0.954 | 1.45 | 2.03 | 1.66 | 0.783 | 1.25 | 0.364 | 1.74 | 0.62 | 0.981 | 0.474 |
| HNLFSYPTKHE [MYO3A_Y1396_YF] | 0.738 | 0.624 | 0.874 | 0.65 | 0.624 | 0.65 | 0.74 | 0.773 | 0.631 | 0.868 | 1.01 | 0.531 | 0.989 | 0.576 | 0.523 | 0.597 |
| HNQDDYSFPSR [LDLR_Y845_G844D_YF] | 0.75 | 2.14 | 0.586 | 1.3 | 0.573 | 0.545 | 0.539 | 5.49 | 0.737 | 0.553 | 0.536 | 0.633 | 0.77 | 0.723 | 0.8 | 0.678 |
| HNVAIYEGYAL [ACTC1_Y168_P166A] | 0.969 | 22.6 | 12.8 | 15.8 | 19.7 | 3.44 | 0.878 | 2.26 | 15.4 | 6.65 | 2.17 | 17.1 | 2.5 | 0.716 | 0.838 | 2.31 |
| HNVPICEGFAL [ACTC1_Y168_Y168C_YF] | 0.947 | 0.704 | 0.708 | 0.729 | 0.59 | 1.06 | 0.849 | 1.1 | 0.75 | 0.673 | 1.15 | 0.621 | 1.29 | 0.871 | 1.16 | 0.555 |
| HPFHVYPQPGM [BAG3_Y114] | 0.998 | 1.01 | 0.684 | 1.02 | 0.499 | 0.938 | 0.749 | 0.873 | 0.804 | 0.585 | 0.545 | 0.465 | 0.852 | 1.05 | 0.79 | 0.883 |
| HPWPRYTTRAP [FNDC1_Y1281_Q1280R] | 0.619 | 0.713 | 0.849 | 0.509 | 0.449 | 0.646 | 0.515 | 0.802 | 0.796 | 0.605 | 0.518 | 0.654 | 0.907 | 0.684 | 0.643 | 0.434 |
| HQEPVCSVAFS [TBL1X_Y509_Y509C] | 1.1 | 0.654 | 0.69 | 0.804 | 0.874 | 1.09 | 1.12 | 1.07 | 0.658 | 0.791 | 1.17 | 0.794 | 2.01 | 1.12 | 0.591 | 0.646 |
| HRGCLYLAIEY [TEK_Y899_Y897C] | 1.31 | 1.17 | 1.05 | 1.01 | 0.868 | 1.49 | 0.827 | 1.86 | 0.695 | 0.691 | 1.88 | 0.936 | 2.3 | 1.04 | 0.564 | 0.423 |
| HRGHLYLAIEF [TEK_Y899_Y897H_YF] | 1.79 | 1.67 | 1.5 | 1.78 | 1.38 | 9.68 | 1.41 | 3.67 | 1.49 | 1.64 | 6.33 | 2.63 | 8.12 | 0.645 | 0.722 | 0.571 |
| HSDFQYSQRSQ [PKP2_Y168_YF] | 0.608 | 0.782 | 0.718 | 0.752 | 0.733 | 0.942 | 0.931 | 0.997 | 0.844 | 0.602 | 0.952 | 0.747 | 1.02 | 0.99 | 0.832 | 0.581 |
| HSQEDYFECFQ [ZIM2_Y411] | 8.51 | 1.2 | 0.623 | 2.03 | 0.614 | 0.902 | 10.2 | 3.08 | 0.669 | 0.624 | 1.25 | 0.79 | 1.82 | 0.639 | 0.6 | 0.531 |
| HSREDYFECFQ [ZIM2_Y411_Q408R] | 6.79 | 1.19 | 0.907 | 1.83 | 0.811 | 1.28 | 9.83 | 2.12 | 0.598 | 0.721 | 1.58 | 0.91 | 1.64 | 0.786 | 0.766 | 0.557 |
| HTLIKYTDGDQ [PUS7L_Y94] | 1.14 | 0.982 | 1.01 | 0.819 | 0.64 | 1.35 | 1.33 | 1.41 | 1.89 | 1.16 | 1.75 | 1.09 | 1.76 | 0.914 | 0.606 | 0.464 |
| HVPEEYKPKQG [SAXO2_Y37] | 0.519 | 0.434 | 0.62 | 0.493 | 0.386 | 0.943 | 0.366 | 0.827 | 0.449 | 0.423 | 0.867 | 0.685 | 1.17 | 0.956 | 0.674 | 0.512 |
| IATAIYSGDKI [UGGT2_Y823] | 0.482 | 0.432 | 2.38 | 0.434 | 0.396 | 0.422 | 0.421 | 0.543 | 2.11 | 0.455 | 0.6 | 2.69 | 0.671 | 0.796 | 0.674 | 0.393 |
| IATTIYSGDKI [UGGT2_Y823_A821T] | 0.493 | 0.557 | 0.791 | 0.576 | 0.41 | 0.778 | 0.57 | 0.638 | 0.591 | 0.507 | 0.701 | 0.748 | 0.752 | 0.893 | 0.695 | 0.516 |
